B1: Mothers against decapentaplegic homolog 3 (Rattus norvegicus (Rat)), P84025 (parent)
chain: MSSILPFTPPIVKRLLGWKKGEQNGQEEKWCEKAVKSLVKKLKKTGQLDELEKAITTQNVNTKCITIPRSLDGRLQVSHRKGLPHVIYCRLWRWPDLHSHHELRAMELCEFAFNMKKDEVCVNPYHYQRVETPVLPPVLVPRHTEIPAEFPPLDDYSHSIPENTNFPAGIEPQSNIPETPPPGYLSEDGETSDHQMNHSMDAGSPNLSPNPMSPAHNNLDLQPVTYCEPAFWCSISYYELNQRVGETFHASQPSMTVDGFTDPSNSERFCLGLLSNVNRNAAVELTRRHIGRGVRLYYIGGEVFAECLSDSAIFVQSPNCNQRYGWHPATVCKIPPGCNLKIFNNQEFAALLAQSVNQGFEAVYQLTRMCTIRMSFVKGWGAEYRRQTVTSTPCWIELHLNGPLQWLDKVLTQMGSPSIRCSSVS

Variants of: B1
Conditions: with ncap_sars N
With S423D;S425D the “effect of a mutation on the interaction” value was “with no effect”. S422A;S423A;S425A was tested, and the “effect of a mutation on the interaction” value was “with no effect”.

From IntAct's records for PubMed 18055455
